From paper PMC9512702 come the findings set out here.

Where a chain is given by its changes, count along the chain named. “And” between values parts separate entries of the source, which are not always exact repeats. Equal entries are not always repeated.

The target in assay [1] is mammalian expressed RBD (mRBD) of SARS-CoV-2 spike (SARS-CoV-2), P0DTC2. The experiment in a line: SPR. Background: In SPR one partner is held on a chip, and binding of the other changes the refractive index at the surface.
Assay [2] deals with SIH-11. As to the kind of experiment: AUC.
Assay [3] deals with SIH-7. The experiment in a line: AUC.
Assay [4] has as its target SIH-13. The experiment in a line: AUC.

B1: SIH-11 (designed binder)
chain: DKEWILQKIYEIMRLLDELADAEASMRVSDLIYEFMKK
modifications: not checked
As usually defined, the Kd is the concentration at which binding is half-saturated. The term stoichiometry N denotes the number of molecules, sites or subunits per partner or assembly. Consider B1, for which the dissociation constant (Kd) in assay [1] came to 1.3 nM. In addition, the stoichiometry N in assay [2] is 3.2.

B2: SIH-7 (designed binder)
chain: B1 chain with Y10F
modifications: not checked
For B2, in assay [1], the Kd turned out to be 2.9 nM. Besides, in assay [3], the stoichiometry N is 4.1 and 7.9.

B3: SIH-13 (designed binder)
chain: B1 chain with Y10F
modifications: not checked
For B3, the Kd in assay [1] turned out to be 1.6 nM. For the same molecule, in assay [4], the stoichiometry N was 9.5 and 17.7.
